Source: EP4671273A1 (Anaveon AG, dated 2025)
Where two headings read alike, the source gives them in different places.

Legend:
Assay in all cases: cell-based or functional assay
[1] = biological target: T1, human IL-21 receptor (IL-21R) on cells (human, UniProt Q9HBE5 20-538; P31785 23-369)
[2] = biological target: T1, human IL-21 receptor (IL-21R) on cells; remark: listed apart in the source
[3] = biological target: T1, human IL-21 receptor (IL-21R) on cells; remark: listed apart in the source
[4] = biological target: T1, human IL-21 receptor (IL-21R) on cells; remark: listed apart in the source

T1 sequence (Q9HBE5 20-538, chain 1 of 2): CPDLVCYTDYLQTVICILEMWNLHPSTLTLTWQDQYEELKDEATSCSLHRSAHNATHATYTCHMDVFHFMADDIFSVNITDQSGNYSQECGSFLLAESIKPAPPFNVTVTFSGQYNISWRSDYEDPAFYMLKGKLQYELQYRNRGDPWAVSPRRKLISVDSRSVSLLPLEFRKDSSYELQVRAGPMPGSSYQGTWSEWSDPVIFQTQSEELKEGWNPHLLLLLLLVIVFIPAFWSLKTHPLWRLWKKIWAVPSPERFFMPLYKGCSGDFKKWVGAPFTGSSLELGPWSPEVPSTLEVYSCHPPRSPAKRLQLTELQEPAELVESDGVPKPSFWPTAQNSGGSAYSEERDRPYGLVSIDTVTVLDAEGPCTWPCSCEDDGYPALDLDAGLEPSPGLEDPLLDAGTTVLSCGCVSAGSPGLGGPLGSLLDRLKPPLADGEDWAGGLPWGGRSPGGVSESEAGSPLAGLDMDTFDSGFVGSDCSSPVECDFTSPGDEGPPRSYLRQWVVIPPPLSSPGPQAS
T1 sequence (P31785 23-369, chain 2 of 2): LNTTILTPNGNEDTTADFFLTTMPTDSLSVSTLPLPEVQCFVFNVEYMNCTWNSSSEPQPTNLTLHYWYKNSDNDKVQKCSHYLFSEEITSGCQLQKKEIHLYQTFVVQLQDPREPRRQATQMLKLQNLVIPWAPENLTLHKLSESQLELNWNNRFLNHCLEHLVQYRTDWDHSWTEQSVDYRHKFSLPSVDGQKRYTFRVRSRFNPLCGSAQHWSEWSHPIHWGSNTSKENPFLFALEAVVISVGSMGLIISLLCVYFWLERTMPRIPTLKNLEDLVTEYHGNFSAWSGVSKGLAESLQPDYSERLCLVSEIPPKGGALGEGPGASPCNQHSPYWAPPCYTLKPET

| Binder | Δ [1] | EC50B, pSTAT3+ Jurkat PD-1 cells, PD-1 blocked [2] [nM] | EC50NB, pSTAT3+ Jurkat PD-1 cells [2] [nM] | EC50B, pSTAT3+ Jurkat PD-1 cells, PD-1 blocked [3] [nM] | EC50NB, pSTAT3+ Jurkat PD-1 cells [3] [nM] | EC50B, pSTAT3+ Jurkat PD-1 cells, PD-1 blocked [4] [nM] | EC50NB, pSTAT3+ Jurkat PD-1 cells [4] [nM] |
| --- | --- | --- | --- | --- | --- | --- | --- |
| PAP722 (bispecific antibody, human IgG1, kappa, lambda, L234A L235A) heavy 1: EVQLLESGGGLVQPGGSLRLSCAASGFTFSINAMTWVRQAPGKGLEWVSTISGSGFSTYYADSLKGRFTISRDNSKNTLYLQMNSLRAEDTAVYYCAKEVYGDYWGQGTLVTVSSASTKGPSVFPLAPSSKSTSGGTAALGCLVKDYFPEPVTVSWNSGALTSGVHTFPAVLQSSGLYSLSSVVTVPSSSLGTQTYICNVNHKPSNTKVDKRVEPKSCDKTHTCPPCPAPEAAGGPSVFLFPPKPKDTLMISRTPEVTCVVVDVSHEDPEVKFNWYVDGVEVHNAKTKPREEQYNSTYRVVSVLTVLHQDWLNGKEYKCKVSNKALAAPIEKTISKAKGQPREPQVCTLPPSREEMTKNQVSLSCAVKGFYPSDIAVEWESNGQPENNYKTTPPVLDSDGSFFLVSKLTVDKSRWQQGNVFSCSVMHEALHNHYTQKSLSLSPGK light 1: not shown heavy 2: QVQLQESGPGLVKPSETLSLTCTVSGGSISSDYWGWIRQPPGKGLEWIGYISSRGSTNYNPSLKRRVTISVDTSRNQFSLKLSSVTAADTAVYYCARSAGVADFDFWGQGTLVTVSSASTKGPSVFPLAPSSKSTSGGTAALGCLVKDYFPEPVTVSWNSGALTSGVHTFPAVLQSSGLYSLSSVVTVPSSSLGTQTYICNVNHKPSNTKVDKRVEPKSCDKTHTCPPCPAPEAAGGPSVFLFPPKPKDTLMISRTPEVTCVVVDVSHEDPEVKFNWYVDGVEVHNAKTKPREEQYNSTYRVVSVLTVLHQDWLNGKEYKCKVSNKALAAPIEKTISKAKGQPREPQVYTLPPCREEMTKNQVSLWCLVKGFYPSDIAVEWESNGQPENNYKTTPPVLDSDGSFFLYSKLTVDKSRWQQGNVFSCSVMHEALHNHYTQKSLSLSPGK light 2: not shown | 4.3 | 1.97 | 0.019 | – | – | – | – |
| YWW798 (bispecific antibody, human IgG1, kappa, lambda, L234A L235A) heavy 1: EVQLLESGGGLVQPGGSLRLSCAASGFTFSINAMTWVRQAPGKGLEWVSTISGSGFSTYYADSLKGRFTISRDNSKNTLYLQMNSLRAEDTAVYYCAKEVYGDYWGQGTLVTVSSASTKGPSVFPLAPSSKSTSGGTAALGCLVKDYFPEPVTVSWNSGALTSGVHTFPAVLQSSGLYSLSSVVTVPSSSLGTQTYICNVNHKPSNTKVDKRVEPKSCDKTHTCPPCPAPEAAGGPSVFLFPPKPKDTLMISRTPEVTCVVVDVSHEDPEVKFNWYVDGVEVHNAKTKPREEQYNSTYRVVSVLTVLHQDWLNGKEYKCKVSNKALAAPIEKTISKAKGQPREPQVCTLPPSREEMTKNQVSLSCAVKGFYPSDIAVEWESNGQPENNYKTTPPVLDSDGSFFLVSKLTVDKSRWQQGNVFSCSVMHEALHNHYTQKSLSLSPGK light 1: not shown heavy 2: QVQLQESGPGLVKPSETLSLTCTVSGGSISSDYWGWIRQPPGKGLEWIGYISYSGSTNYNPSLKSRVTISVDTSRNQFSLKLSSVTAADTAVYYCARSAGVTDFDAWGQGTLVTVSSASTKGPSVFPLAPSSKSTSGGTAALGCLVKDYFPEPVTVSWNSGALTSGVHTFPAVLQSSGLYSLSSVVTVPSSSLGTQTYICNVNHKPSNTKVDKRVEPKSCDKTHTCPPCPAPEAAGGPSVFLFPPKPKDTLMISRTPEVTCVVVDVSHEDPEVKFNWYVDGVEVHNAKTKPREEQYNSTYRVVSVLTVLHQDWLNGKEYKCKVSNKALAAPIEKTISKAKGQPREPQVYTLPPCREEMTKNQVSLWCLVKGFYPSDIAVEWESNGQPENNYKTTPPVLDSDGSFFLYSKLTVDKSRWQQGNVFSCSVMHEALHNHYTQKSLSLSPGK light 2: not shown | 3.45 | – | – | 0.526 | 0.004 | – | – |
| DMT806 (bispecific antibody, human IgG1, kappa, lambda, L234A L235A) heavy 1: EVQLLESGGGLVQPGGSLRLSCAASGFTFSINAMTWVRQAPGKGLEWVSTISGSGFSTYYADSLKGRFTISRDNSKNTLYLQMNSLRAEDTAVYYCAKEVYGDYWGQGTLVTVSSASTKGPSVFPLAPSSKSTSGGTAALGCLVKDYFPEPVTVSWNSGALTSGVHTFPAVLQSSGLYSLSSVVTVPSSSLGTQTYICNVNHKPSNTKVDKRVEPKSCDKTHTCPPCPAPEAAGGPSVFLFPPKPKDTLMISRTPEVTCVVVDVSHEDPEVKFNWYVDGVEVHNAKTKPREEQYNSTYRVVSVLTVLHQDWLNGKEYKCKVSNKALAAPIEKTISKAKGQPREPQVCTLPPSREEMTKNQVSLSCAVKGFYPSDIAVEWESNGQPENNYKTTPPVLDSDGSFFLVSKLTVDKSRWQQGNVFSCSVMHEALHNHYTQKSLSLSPGK light 1: not shown heavy 2: not shown light 2: DIQMTQSPSSVSASVGDRVTITCRASQGISSWLAWYQHKPGKAPKLLIYVASSLQSGVPSRFSGSGSGTDFTLTISSLQPEDFATYYCQQANSFPLTFGGGTKVEIKRTVAAPSVFIFPPSDEQLKSGTASVVCLLNNFYPREAKVQWKVDNALQSGNSQESVTEQDSKDSTYSLSSTLTLSKADYEKHKVYACEVTHQGLSSPVTKSFNRGEC | 2.79 | – | – | – | – | 12.4 | 0.17 |
| TVU155 (bispecific antibody, human IgG1, kappa, lambda, L234A L235A) heavy 1: EVQLLESGGGLVQPGGSLRLSCAASGFTFSINAMTWVRQAPGKGLEWVSTISGSGFSTYYADSLKGRFTISRDNSKNTLYLQMNSLRAEDTAVYYCAKEVYGDYWGQGTLVTVSSASTKGPSVFPLAPSSKSTSGGTAALGCLVKDYFPEPVTVSWNSGALTSGVHTFPAVLQSSGLYSLSSVVTVPSSSLGTQTYICNVNHKPSNTKVDKRVEPKSCDKTHTCPPCPAPEAAGGPSVFLFPPKPKDTLMISRTPEVTCVVVDVSHEDPEVKFNWYVDGVEVHNAKTKPREEQYNSTYRVVSVLTVLHQDWLNGKEYKCKVSNKALAAPIEKTISKAKGQPREPQVCTLPPSREEMTKNQVSLSCAVKGFYPSDIAVEWESNGQPENNYKTTPPVLDSDGSFFLVSKLTVDKSRWQQGNVFSCSVMHEALHNHYTQKSLSLSPGK light 1: not shown heavy 2: QVQLQESGPGLVKPSETLSLTCTVSGGSISSDYWGWIRQPPGKGLEWIGYISYRGSTNYNPSLKSRVTISVDTSRNQFSLKLSSVTAADTAVYYCARSAGVTDFDAWGQGTLVTVSSASTKGPSVFPLAPSSKSTSGGTAALGCLVKDYFPEPVTVSWNSGALTSGVHTFPAVLQSSGLYSLSSVVTVPSSSLGTQTYICNVNHKPSNTKVDKRVEPKSCDKTHTCPPCPAPEAAGGPSVFLFPPKPKDTLMISRTPEVTCVVVDVSHEDPEVKFNWYVDGVEVHNAKTKPREEQYNSTYRVVSVLTVLHQDWLNGKEYKCKVSNKALAAPIEKTISKAKGQPREPQVYTLPPCREEMTKNQVSLWCLVKGFYPSDIAVEWESNGQPENNYKTTPPVLDSDGSFFLYSKLTVDKSRWQQGNVFSCSVMHEALHNHYTQKSLSLSPGK light 2: not shown | 2.96 | – | – | 0.951 | 0.004 | – | – |

Continued, values first:

| Δ [1] | EC50B, pSTAT3+ Jurkat PD-1 cells, PD-1 blocked [2] [nM] | EC50NB, pSTAT3+ Jurkat PD-1 cells [2] [nM] | EC50B, pSTAT3+ Jurkat PD-1 cells, PD-1 blocked [3] [nM] | EC50NB, pSTAT3+ Jurkat PD-1 cells [3] [nM] | EC50B, pSTAT3+ Jurkat PD-1 cells, PD-1 blocked [4] [nM] | EC50NB, pSTAT3+ Jurkat PD-1 cells [4] [nM] | Binder |
| --- | --- | --- | --- | --- | --- | --- | --- |
| 4.21 | 1.33 | 0.009 | – | – | – | – | YCV364 (bispecific antibody, human IgG1, kappa, lambda, L234A L235A) heavy 1: EVQLLESGGGLVQPGGSLRLSCAASGFTFSINAMTWVRQAPGKGLEWVSTISGSGFSTYYADSLKGRFTISRDNSKNTLYLQMNSLRAEDTAVYYCAKEVYGDYWGQGTLVTVSSASTKGPSVFPLAPSSKSTSGGTAALGCLVKDYFPEPVTVSWNSGALTSGVHTFPAVLQSSGLYSLSSVVTVPSSSLGTQTYICNVNHKPSNTKVDKRVEPKSCDKTHTCPPCPAPEAAGGPSVFLFPPKPKDTLMISRTPEVTCVVVDVSHEDPEVKFNWYVDGVEVHNAKTKPREEQYNSTYRVVSVLTVLHQDWLNGKEYKCKVSNKALAAPIEKTISKAKGQPREPQVCTLPPSREEMTKNQVSLSCAVKGFYPSDIAVEWESNGQPENNYKTTPPVLDSDGSFFLVSKLTVDKSRWQQGNVFSCSVMHEALHNHYTQKSLSLSPGK light 1: not shown heavy 2: QVQLQESGPGLVKPSETLSLTCTVSGGSISSDFWGWIRQPPGKGLEWIGYISSRGSTNYNPSLKRRVTISVDTSRNQFSLKLSSVTAADTAVYYCARSAGVADFDFWGQGTLVTVSSASTKGPSVFPLAPSSKSTSGGTAALGCLVKDYFPEPVTVSWNSGALTSGVHTFPAVLQSSGLYSLSSVVTVPSSSLGTQTYICNVNHKPSNTKVDKRVEPKSCDKTHTCPPCPAPEAAGGPSVFLFPPKPKDTLMISRTPEVTCVVVDVSHEDPEVKFNWYVDGVEVHNAKTKPREEQYNSTYRVVSVLTVLHQDWLNGKEYKCKVSNKALAAPIEKTISKAKGQPREPQVYTLPPCREEMTKNQVSLWCLVKGFYPSDIAVEWESNGQPENNYKTTPPVLDSDGSFFLYSKLTVDKSRWQQGNVFSCSVMHEALHNHYTQKSLSLSPGK light 2: not shown |
| 8.18 | – | – | 1.52 | 0.003 | – | – | WBL338 (bispecific antibody) heavy 1: EVQLLESGGGLVQPGGSLRLSCAASGFTFSINAMTWVRQAPGKGLEWVSTISGSGFSTYYADSLKGRFTISRDNSKNTLYLQMNSLRAEDTAVYYCAKEVYGDYWGQGTLVTVSSASTKGPSVFPLAPSSKSTSGGTAALGCLVKDYFPEPVTVSWNSGALTSGVHTFPAVLQSSGLYSLSSVVTVPSSSLGTQTYICNVNHKPSNTKVDKRVEPKSCDKTHTCPPCPAPEAAGGPSVFLFPPKPKDTLMISRTPEVTCVVVDVSHEDPEVKFNWYVDGVEVHNAKTKPREEQYNSTYRVVSVLTVLHQDWLNGKEYKCKVSNKALAAPIEKTISKAKGQPREPQVCTLPPSREEMTKNQVSLSCAVKGFYPSDIAVEWESNGQPENNYKTTPPVLDSDGSFFLVSKLTVDKSRWQQGNVFSCSVMHEALHNHYTQKSLSLSPGK light 1: not shown heavy 2: QVQLQESGPGLVKPSETLSLTCTVSGGSISSDYWGWIRQPPGKGLEWIGYISYRGSTNYNPSLKSRVTISVDTSRNQFSLKLSSVTAADTAVYYCARSAGVTDFDWWGQGTLVTVSSASTKGPSVFPLAPSSKSTSGGTAALGCLVKDYFPEPVTVSWNSGALTSGVHTFPAVLQSSGLYSLSSVVTVPSSSLGTQTYICNVNHKPSNTKVDKRVEPKSCDKTHTCPPCPAPEAAGGPSVFLFPPKPKDTLMISRTPEVTCVVVDVSHEDPEVKFNWYVDGVEVHNAKTKPREEQYNSTYRVVSVLTVLHQDWLNGKEYKCKVSNKALAAPIEKTISKAKGQPREPQVYTLPPCREEMTKNQVSLWCLVKGFYPSDIAVEWESNGQPENNYKTTPPVLDSDGSFFLYSKLTVDKSRWQQGNVFSCSVMHEALHNHYTQKSLSLSPGK light 2: not shown |
